Assay results reported in patent publication US20220135687A1 (NANJING LEGEND BIOTECH, published 2022).
Read-outs that look alike come from different tables or passages of the source.

Experiments:
[1] = target: T1, cynomolgus PD-L1 overexpressing stable cell line (cynomolgus, UniProt G7PSE7 19-290); assay: FACS, cynomolgus PD-L1 cell line
T1 construct: also called cynomolgus PD-L1 overexpressing cell line

[2] = target: T2, human PD-L1 expressed on CHO-K1 cells (Genscript, Cat #M00543) (human, UniProt Q9NZQ7 19-290); assay: FACS, CHO-K1/human PD-L1 cells
T2 construct: also called PD-L1 cell line
T2 sequence (Q9NZQ7 19-290, one chain of several): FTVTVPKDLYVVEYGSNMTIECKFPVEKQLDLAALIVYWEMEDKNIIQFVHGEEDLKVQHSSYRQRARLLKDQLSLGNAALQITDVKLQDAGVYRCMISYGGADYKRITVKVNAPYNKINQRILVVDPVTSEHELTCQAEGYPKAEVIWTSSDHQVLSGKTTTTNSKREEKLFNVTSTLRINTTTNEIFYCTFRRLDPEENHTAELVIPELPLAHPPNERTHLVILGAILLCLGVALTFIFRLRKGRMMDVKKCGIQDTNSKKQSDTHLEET
Experimental: (§1) PD-L1 stable cell line binding activity assessment of 12 mouse mAbs was carried out using FACS. CHO-K1 cells expressing human PD-L1 (Genscript, Cat #M00543) were dissociated from adherent culture flasks and mixed with varying concentrations of antibodies. The antibody and cells were incubated for 30 minutes at room temperature, washed three times with FACS buffer (PBS containing 1% BSA). PE-labeled goat anti-mouse IgG (minimal x-reactivity) secondary antibody (BioLegend, Cat #405307) was added and incubated at room temperature for 15 minutes. Cells were washed again with FACS buffer and analyzed by FACSCalibur (BD Bioscience, San Jose, Calif.) and Flowjo software. Data were analyzed with Prism 6 (GraphPad Software, San Diego, Calif.) using non-linear regression, and EC₅₀ values were calculated (FIGS. 2A-2L and Table 3).
Human and cynomolgus PD-L1 stable cell line binding activity assessment of chimeric and humanized mAbs was carried out using FACS as described above (FIGS. 9A-9L and FIGS. 10A-10L and Tables 13 and 14).

[3] = target: T3, His-tagged PD-L1 ECD protein (ACROBiosystems) (human, UniProt Q9NZQ7 19-238); assay: SPR, supernatant IgG captured, PD-L1-His analyte
T3 construct: Bought protein; also called PD-L1-His; PD-L1/His; not shown: His tag
T3 sequence (Q9NZQ7 19-238): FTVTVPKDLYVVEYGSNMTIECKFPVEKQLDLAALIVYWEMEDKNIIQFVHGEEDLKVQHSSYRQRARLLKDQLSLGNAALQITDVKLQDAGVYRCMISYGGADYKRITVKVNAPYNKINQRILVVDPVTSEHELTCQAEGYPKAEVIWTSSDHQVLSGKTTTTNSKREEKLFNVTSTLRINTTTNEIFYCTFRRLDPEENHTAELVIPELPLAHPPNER

[4] = target: T2, human PD-L1 expressed on CHO-K1 cells …; assay: FACS competition vs biotin-PD-1-Fc on CHO-K1/human PD-L1 cells
Experimental: A series of diluted mouse mAbs (concentration starting from 900 nM, 3 fold dilution, 50 μl per well) were added afterwards. The mixture was incubated at 4° C. for 30 minutes, washed twice with wash buffer, followed by the addition of PEcy5/streptavidin (1 μg/ml, 150 μl/well). The plates were again incubated at 4° C. for 30 minutes before the cells in each well were analyzed by FACSCalibur (BD Bioscience, San Jose, Calif.) and Flowjo software.

[5] = target: T3, His-tagged PD-L1 ECD protein …; assay: SPR, IgG captured by anti-human Fc, PD-L1-His analyte
Experimental: Briefly, capturing antibody (anti-mouse Fc antibody for the affinity measurement of mouse mAbs, or anti-human Fc antibody for the affinity measurement of chimeric and humanized mAbs, GE healthcare) was immobilized on a Biacore™ CM5 chip to approximately 7,000 RU using EDC-activated amine coupling chemistry. Antibody of interest (5 μg/ml) was captured for 60 seconds onto the sensorchip surface. His-tagged PD-L1 ECD protein (ACROBiosystems) was flowed over the sensorchip surface at a series concentrations. Flow rate was 30 μl/min in all experiments. Association and dissociation phases were 5 and 15 min, respectively. The chip was regenerated using Glycine/HCl pH 1.5. Captured antibody and antigen were removed between each cycle using 50 mM HCl in order to ensure a fresh binding surface for each concentration of antigen. The resulting sensorgrams were fit globally using a 1:1 binding model in order to calculate on- and off-rates (ka and kd, respectively), as well as affinities (KD).

[6] = target: T3, His-tagged PD-L1 ECD protein …; assay: SPR, supernatant IgG captured, PD-L1-His analyte; remark: listed apart in the source
[7] = target: T2, human PD-L1 expressed on CHO-K1 cells …; assay: cell-based or functional assay
[8] = target: cynomolgus PD-L1 Fc-fusion protein (cynomolgus, UniProt G7PSE7 19-238); assay: SPR, cyno PD-L1-Fc immobilised, antibody analyte
Chain of cynomolgus PD-L1 Fc-fusion protein (G7PSE7 entry or part of it limits assumed): as the sequence (Q9NZQ7 19-238) above, with A33T, A34S, S62N, R68Q, Q82R, F173L, T185A, T192I, H215L counted along it

[9] = target: T2, human PD-L1 expressed on CHO-K1 cells …; assay: cell-based or functional assay; remark: listed apart in the source
[10] = target: T2, human PD-L1 expressed on CHO-K1 cells …; assay: FACS, CHO-K1/human PD-L1 cells; remark: listed apart in the source
Experimental: as §1

[11] = target: T3, His-tagged PD-L1 ECD protein …; assay: SPR, supernatant IgG captured, PD-L1-His analyte; remark: listed apart in the source

T1 sequence (G7PSE7 entry or part of it limits assumed): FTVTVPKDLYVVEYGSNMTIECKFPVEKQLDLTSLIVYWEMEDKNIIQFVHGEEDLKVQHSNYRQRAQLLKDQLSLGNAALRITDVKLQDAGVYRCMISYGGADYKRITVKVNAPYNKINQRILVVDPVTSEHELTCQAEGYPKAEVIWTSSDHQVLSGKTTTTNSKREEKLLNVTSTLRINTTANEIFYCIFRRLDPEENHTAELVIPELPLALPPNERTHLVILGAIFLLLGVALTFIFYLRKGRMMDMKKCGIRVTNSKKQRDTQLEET

Row | Binder | EC50 [1] [nM] | Top (best-fit value) [1] | EC50 [2] [nM] | Top (best-fit value) [2] | IC50 [4] [nM] | Kd [5] [nM] | koff [5] [s⁻¹] | kon [5] [M⁻¹ s⁻¹] | EC50, PD-L1 cell-based luciferase reporter assay [7] [nM] | Kd [8] [nM] | koff [8] [s⁻¹] | kon [8] [M⁻¹ s⁻¹] | Kd [11] [nM] | koff [11] [s⁻¹] | kon [11] [M⁻¹ s⁻¹] | also measured
1 | 53C1_chimeric (antibody, human IgG1, kappa, N297A, V domains shown, Human IgG1 with effector-less Fc mutations, human kappa; also called chimeric 53C1F3D4) VH: QVQLQQSGNELARPGASVRLSCKASGYIFTGYGITWVRQRPGQGLEWIGEIFPRRVNTYYSEKFKGRATLTADISSSTAYMELRSLTSEDSAVYFCARDYDPYFALDYWGQGTSVTVSS VL: DIVMTQSHKFMSTSVGDRVSITCKASQDVSTAVDWYQQKPGQSPKLLIYSASYRYTGVPDRFTGSGSGTAFTFTISGEQAEDLAVYYCQQHYSIPFTFGGGTKLEIKR | 2.88 | 8490 | 1.79 | 6230 | 0.59 | 0.78 | 0.00019 | 240000 | 1.98 | 1.1 | 9.5e-05 | 87000 | – | – | – | Kd [3]: 0.75 nM; koff [3]: 0.00019 s⁻¹; kon [3]: 260000 M⁻¹ s⁻¹; Kd [6]: 0.72 nM; koff [6]: 0.00018 s⁻¹; kon [6]: 250000 M⁻¹ s⁻¹
2 | 27D3D3G2 (antibody, V domains shown, Mouse mAb from hybridoma culture) VH: QVLLQQSGPELVKPGASVRISCKASGYTFTSYYMHWVKQRPGQGLEWIGWIYPGNVNTKYNEKFKGKATLTADKSSSTAYMQLSSLTSEDSAVYFCASYGNYGGWYFDVWGAGTTVTVSS VL: DIQMTQTTSSLSASLGDRVTISCRASQDIGNYLNWYQQKPDGTVKLLIYYTSRLHSGVPSRFSGSGSGTDYSLTISNLEQEDIATYFCQQGDTFPWTFGGGTKLEIK | – | – | – | – | 1.28 | – | – | – | – | – | – | – | – | – | – | EC50, PD-L1 cell-based luciferase reporter assay [9]: 3.62 nM; EC50 [10]: 4.19 nM; Top (best-fit value) [10]: 1770
3 | 29A8_chimeric (antibody, human IgG1, kappa, N297A, V domains shown, Human IgG1 with effector-less Fc mutations, human kappa; also called chimeric 29A8H8C7) VH: DVQLQGSGPGLVKPSQSLSLTCTVTGYSITSDFAWDWIRQFPGNKLEWMGHIRFSGTTSYNPSLKSRISITRDTSKNQFFLQLNSVTSEDTATYYCARSTLITKGFFDYWGQGTTLTVSS VL: DIVMTQSHKFMSTSVGGRVSITCKASQDVSPAVAWYQQKPGQSPKLLIYWASTRHTGVPDRFTGSGSGTDFTLTISSVQTEDLALYYCQQHYSTPWTFGGGTKLEIKR | 2.77 | 8670 | 1.08 | 6410 | 0.3 | 0.3 | 0.00019 | 640000 | 1.34 | 0.48 | 7.3e-05 | 150000 | 0.25 | 0.00015 | 580000 | Kd [3]: 0.32 nM; koff [3]: 0.00017 s⁻¹; kon [3]: 530000 M⁻¹ s⁻¹
4 | 53C1_VH3-VL1.M1 (antibody, human IgG1, kappa, N297A, V domains shown, Humanized, hIgG1 effector-less Fc, kappa; see recheck on K24R in the .M1 light chain) VH: EVQLVQSGAEVKKPGASVKLSCKASGYIFTGYGITWVRQAPGQGLEWIGEIFPRRVNTYYSEKFKGRATLTADTSTSTAYMELRSLRSDDTAVYFCARDYDPYFALDYWGQGTTVTVSS VL: DIQMTQSPSSLSASVGDRVTITCRASQDVSTAVDWYQQKPGKAPKLLIYSASYRYTGVPDRFSGSGSGTDFTFTISSLQPEDIATYYCQQHYSIPFTFGQGTKLEIKR | 4.66 | 8310 | 2 | 6410 | 0.482 | 0.55 | 0.00016 | 290000 | 2.26 | 0.71 | 6.8e-05 | 95000 | – | – | – | Kd [6]: 0.49 nM; koff [6]: 0.00015 s⁻¹; kon [6]: 300000 M⁻¹ s⁻¹
5 | 29A8_VH1-VL1.M1 (antibody, human IgG1, kappa, N297A, Humanized, hIgG1 effector-less Fc, kappa; see recheck on K24R in the .M1 light chain) heavy: not shown light: DIQMTQSPSSLSASVGDRVTITCRASQDVSPAVAWYQQKPGKAPKLLIYWASTRHTGVPSRFSGSGSGTDFTLTISSLQPEDFATYYCQQHYSTPWTFGQGTKVEIKRTVAAPSVFIFPPSDEQLKSGTASVVCLLNNFYPREAKVQWKVDNALQSGNSQESVTEQDSKDSTYSLSSTLTLSKADYEKHKVYACEVTHQGLSSPVTKSFNRGEC | 3.53 | 7470 | 1.75 | 6400 | 0.463 | 1.4 | 0.0008 | 590000 | 2.01 | 4 | 0.00043 | 110000 | 1.5 | 0.00071 | 470000 | –
6 | 29A8_VH4-VL1.M1 (antibody, human IgG1, kappa, N297A, Humanized, hIgG1 effector-less Fc, kappa; see recheck on K24R in the .M1 light chain) heavy: not shown light: DIQMTQSPSSLSASVGDRVTITCRASQDVSPAVAWYQQKPGKAPKLLIYWASTRHTGVPSRFSGSGSGTDFTLTISSLQPEDFATYYCQQHYSTPWTFGQGTKVEIKRTVAAPSVFIFPPSDEQLKSGTASVVCLLNNFYPREAKVQWKVDNALQSGNSQESVTEQDSKDSTYSLSSTLTLSKADYEKHKVYACEVTHQGLSSPVTKSFNRGEC | 1.49 | 7820 | 1.05 | 5180 | 0.385 | 1.1 | 0.00071 | 630000 | 1.24 | 3.3 | 0.00044 | 130000 | 1.1 | 0.00063 | 560000 | –
7 | 29A8_VH5-VL1.M1 (antibody, human IgG1, kappa, N297A, V domains shown, Humanized, hIgG1 effector-less Fc, kappa; see recheck on K24R in the .M1 light chain) VH: EVQLQESGPGLVKPSETLSLTCTVSGYSITSDFAWDWIRQPPGKGLEWIGHIRFSGTTSYNPSLKSRVTISRDTSKNQFSLKLSSVTAADTAVYYCARSTLITKGFFDYWGQGTLVTVSS VL: DIQMTQSPSSLSASVGDRVTITCRASQDVSPAVAWYQQKPGKAPKLLIYWASTRHTGVPSRFSGSGSGTDFTLTISSLQPEDFATYYCQQHYSTPWTFGQGTKVEIKR | 3.07 | 7950 | 1.31 | 5100 | 0.545 | 0.74 | 0.00046 | 620000 | 1.81 | 0.98 | 0.0002 | 200000 | 0.76 | 0.00042 | 550000 | –
